{"source": "paper PMC5669276", "key": {"[1]": {"target": "Bluetongue virus (BTV) middle-layer core protein VP7, as trimer on the virion (bluetongue virus (BTV))", "assay": "cryo-EM structure"}, "[2]": {"target": "Bluetongue virus (BTV) receptor-binding outer-layer protein VP2, as trimer on the virion (bluetongue virus (BTV))", "assay": "cryo-EM structure"}, "[3]": {"target": "Bluetongue virus (BTV) membrane penetration outer-layer protein VP5, as trimer on the virion (bluetongue virus (BTV))", "assay": "[…]"}, "[4]": {"target": "Bluetongue virus (BTV) membrane penetration outer-layer protein VP5, as trimer on the virion (bluetongue virus (BTV))", "assay": "cryo-EM structure"}}}
{"substance": "Bluetongue virus (BTV) middle-layer core protein VP7, as trimer on the virion (natural protein)", "values": [{"measurement": "stoichiometry N", "setting": "[1]", "result": 3}]}
{"substance": "Bluetongue virus (BTV) receptor-binding outer-layer protein VP2, as trimer on the virion (natural protein)", "values": [{"measurement": "stoichiometry N", "setting": "[2]", "result": 3}]}
{"substance": "Bluetongue virus (BTV) membrane penetration outer-layer protein VP5, as trimer on the virion (natural protein)", "values": [{"measurement": "stoichiometry N", "setting": "[3]", "result": 3}, {"measurement": "stoichiometry N", "setting": "[4]", "result": 3}]}
